Measurements taken from patent publication US12358960B2, “Selective targeting of ubiquitin- and ubiquitin-like E1-activating enzymes by structurally-stabilized peptides” (Dana-Farber Cancer Institute, Inc., priority 2019, dated 2025).
Bridge positions count the residues as written; N and C are the ends. Square brackets hold non-standard residues; d marks the D form. Ends that are not written are not given here. R8 = C=CCCCCCC[C@@](C)(N)C(=O)O; S5 = C=CCCC[C@](C)(N)C(=O)O; Nle = CCCC[C@H](N)C(=O)O

Key:
Assay type in all cases: binding
[1] = target: T1, UBA1 (Homo sapiens, UniProt P22314); assay: Streptavidin-biotin pull-down with recombinant protein; details: biotinylated peptide, silver stain
T1 sequence (P22314 1-1058): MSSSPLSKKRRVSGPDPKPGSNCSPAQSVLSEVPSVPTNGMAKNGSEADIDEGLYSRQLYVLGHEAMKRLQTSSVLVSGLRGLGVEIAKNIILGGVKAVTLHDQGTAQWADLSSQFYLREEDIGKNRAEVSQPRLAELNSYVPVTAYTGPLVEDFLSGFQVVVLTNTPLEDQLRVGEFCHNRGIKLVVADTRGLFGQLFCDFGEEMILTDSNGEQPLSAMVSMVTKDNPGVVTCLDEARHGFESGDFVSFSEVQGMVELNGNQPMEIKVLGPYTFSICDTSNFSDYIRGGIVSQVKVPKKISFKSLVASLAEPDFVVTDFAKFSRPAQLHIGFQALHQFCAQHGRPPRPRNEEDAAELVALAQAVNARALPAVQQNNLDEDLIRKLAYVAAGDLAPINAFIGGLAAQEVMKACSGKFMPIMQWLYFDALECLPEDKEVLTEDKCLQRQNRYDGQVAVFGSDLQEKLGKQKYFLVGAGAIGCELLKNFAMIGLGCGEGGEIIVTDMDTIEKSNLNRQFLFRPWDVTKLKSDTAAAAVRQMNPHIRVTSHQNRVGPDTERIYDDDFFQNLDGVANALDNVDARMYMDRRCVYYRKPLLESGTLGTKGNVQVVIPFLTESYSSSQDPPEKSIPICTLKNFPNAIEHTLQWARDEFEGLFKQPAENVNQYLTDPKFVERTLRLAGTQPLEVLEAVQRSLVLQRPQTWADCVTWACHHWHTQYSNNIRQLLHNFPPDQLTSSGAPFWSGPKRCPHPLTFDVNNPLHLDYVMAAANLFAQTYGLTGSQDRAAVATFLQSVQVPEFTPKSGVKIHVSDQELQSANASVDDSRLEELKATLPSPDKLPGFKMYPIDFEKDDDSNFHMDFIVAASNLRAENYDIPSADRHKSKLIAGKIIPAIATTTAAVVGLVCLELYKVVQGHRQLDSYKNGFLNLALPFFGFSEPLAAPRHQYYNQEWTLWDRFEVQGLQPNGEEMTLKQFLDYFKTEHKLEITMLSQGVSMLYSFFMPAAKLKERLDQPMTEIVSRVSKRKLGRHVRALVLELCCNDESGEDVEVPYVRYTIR
Experimental: Streptavidin-biotin pull-down assays: For recombinant protein pull-downs, 10 pmol recombinant human UBA1 was incubated with 5 nmol C-terminally biotinylated SAH-UBE2A or DMSO vehicle control in a total volume of 1 mL binding buffer (50 mM NaCl, 20 mM HEPES, pH 7.4, 5 mM DTT) for 1.5 hours at 4° C. 30 μL of pre-equilibrated streptavidin agarose beads were then added and incubated for an additional 1.5 hours at 4° C. The beads were pelleted by centrifugation and washed three times with NP-40 buffer (20 mM HEPES, pH 7.4, 50 mM NaCl, 5 mM DTT, 0.5% [v/v] NP-40) before eluting the protein sample from the beads by heating at 70° C. for 10 min in 3×SDS loading buffer. Samples were subjected to electrophoresis and silver staining (Pierce 24612). […] Proteins were separated by SDS-PAGE gel electrophoresis and detected by western blot against UBE1 (Abcam ab34711). […] Conjugation of ubiquitin to E2 by E1 is monitored by conversion of free E2 (17 kDa) to E2˜ubiquitin conjugate (26 kDa). Quantitation of percent inhibition was calculated from densitometry of silver stain images. Error bars represent ±1 SEM calculated from three independent experiments.

[2] = target: T2, His-UBA1 (Homo sapiens, UniProt P22314); assay: Fluorescence microscopy of Ni-NTA agarose beads with His-UBA1; details: FITC-labeled peptide 10 μM
T2 sequence (P22314 1-1058): T1 sequence (P22314 1-1058)
Experimental: Fluorescence Microscopy: His-tagged UBA1 (25 μg) was incubated with Ni-NTA agarose beads (100 μl) (Invitrogen™ R90110) in PBS for 30 min. Beads were then incubated for 30 min with FITC-labeled peptide (10 μM). Beads were plated in […] (10 μl/well) (Corning 384-well High Content Imaging Glass Bottom Microplate) and imaged with an Olympus wide-field epifluorescence microscope, a 63×LCPlanFL NA 0.7 objective, and a CoolSNAP DYNO camera.

[3] = target: His-p53 (Homo sapiens, UniProt P04637); assay: Fluorescence microscopy of Ni-NTA agarose beads, untagged or with His-p53 control; details: FITC-labeled peptide 10 μM
[4] = listed as FITC-labeled SAH-UBE2A-11

Sequence of His-p53 (P04637 whole entry): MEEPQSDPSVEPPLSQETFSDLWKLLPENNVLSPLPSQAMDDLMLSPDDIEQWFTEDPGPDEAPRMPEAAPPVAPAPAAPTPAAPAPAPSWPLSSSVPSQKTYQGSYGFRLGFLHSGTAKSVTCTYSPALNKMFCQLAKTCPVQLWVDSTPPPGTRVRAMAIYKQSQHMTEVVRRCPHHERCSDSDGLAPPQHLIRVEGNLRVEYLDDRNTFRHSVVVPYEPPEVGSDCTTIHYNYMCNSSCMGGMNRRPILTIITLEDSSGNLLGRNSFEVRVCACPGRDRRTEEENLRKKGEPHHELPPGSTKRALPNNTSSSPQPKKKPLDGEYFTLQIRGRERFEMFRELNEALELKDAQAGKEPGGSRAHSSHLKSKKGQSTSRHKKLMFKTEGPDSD

Substance | direct binding to recombinant UBA1, streptavidin capture [1] | binding of FITC-labeled peptide to Ni-NTA beads with His-UBA1 [2] | binding of FITC-labeled peptide to Ni-NTA beads with His-UBA1 [2, 4] | binding of FITC-labeled peptide to untagged beads or His-p53 beads [3] | binding of FITC-labeled peptide to untagged beads or His-p53 beads [3, 4]
biotinylated SAH-UBE2A: C-terminally biotinylated SAH-UBE2A (Ac-[Nle]STP[R8]RRRL[Nle]R[S5]FKRLQ-biotin; staple 5-12) | direct binding of biotinylated SAH-UBE2A to recombinant UBA1 |  |  |  | 
FITC-SAH-UBE2A: FITC conjugated to SEQ ID NO: 132 ([Nle]STP[R8]RRRL[Nle]R[S5]FKRLQ; staple 5-12; not fully specified (C-terminus); also: FITC conjugate, site not settled) |  | only bound to the beads in the presence of His-UBE1 | binds specifically to Ni-NTA beads tagged with His-UBA1 | did not bind nonspecifically to the beads (top row) or to His-p53 | did not engage untagged beads or beads tagged with an unrelated protein (His-p53)
